According to US20160368960A1:
Starred links: 1 amine or outer side, 2 acyl side, 3 side chain; linkers in the order of their positions; H or OH if unused. Non-standard residues stand in square brackets, D forms with d. Groups on a side chain read outwards from the residue. *: point of attachment. C20 diacid = O=C(O)CCCCCCCCCCCCCCCCCCC(=O)*; C18 diacid = O=C(O)CCCCCCCCCCCCCCCCC(=O)*; γGlu = O=C(O)[C@H](CCC(=O)[*:2])N[*:1]; AEEA = NCCOCCOCC(=O)O; Aib = CC(C)(N)C(=O)O

Legend:
[1] = biological target: human Gcg receptor (human), P47871; experiment: radioligand competition SPA, displacement of I-125 Gcg, hGcg-R 293HEK membranes
[2] = biological target: T1, rat GLP-1-R (rat), P32301; experiment: cell-based or functional assay
T1 chain: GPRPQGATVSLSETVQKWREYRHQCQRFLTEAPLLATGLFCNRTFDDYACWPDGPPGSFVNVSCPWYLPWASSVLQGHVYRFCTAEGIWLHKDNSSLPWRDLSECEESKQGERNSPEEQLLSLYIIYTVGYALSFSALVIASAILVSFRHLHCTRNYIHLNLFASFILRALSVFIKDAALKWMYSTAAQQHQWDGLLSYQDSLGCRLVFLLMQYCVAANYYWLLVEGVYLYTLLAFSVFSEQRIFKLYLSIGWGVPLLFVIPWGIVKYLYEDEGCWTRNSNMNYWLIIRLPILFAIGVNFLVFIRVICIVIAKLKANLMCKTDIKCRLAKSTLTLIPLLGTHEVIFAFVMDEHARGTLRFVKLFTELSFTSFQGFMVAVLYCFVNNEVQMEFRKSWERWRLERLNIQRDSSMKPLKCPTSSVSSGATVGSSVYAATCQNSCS

[3] = biological target: T2, human GLP-1 receptor (human), P43220; experiment: cell-based or functional assay
T2 chain: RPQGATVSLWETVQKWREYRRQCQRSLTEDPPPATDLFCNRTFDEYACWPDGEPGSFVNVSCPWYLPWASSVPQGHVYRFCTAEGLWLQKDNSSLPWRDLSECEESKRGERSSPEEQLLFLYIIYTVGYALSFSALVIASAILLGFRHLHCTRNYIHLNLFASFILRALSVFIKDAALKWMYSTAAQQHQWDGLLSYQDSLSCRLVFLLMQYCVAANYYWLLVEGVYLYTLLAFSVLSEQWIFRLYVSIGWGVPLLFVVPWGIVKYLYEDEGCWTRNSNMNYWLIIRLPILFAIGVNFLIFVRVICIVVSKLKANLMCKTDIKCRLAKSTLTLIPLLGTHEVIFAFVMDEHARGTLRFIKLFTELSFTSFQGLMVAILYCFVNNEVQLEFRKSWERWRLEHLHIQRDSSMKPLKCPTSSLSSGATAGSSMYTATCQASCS

[4] = biological target: human Gcg receptor (human), P47871; experiment: cell-based or functional assay
[5] = biological target: T2, human GLP-1 receptor (human), P43220; experiment: radioligand competition SPA, displacement of I-125 GLP-1, hGLP-1-R 293HEK membranes

human Gcg receptor (human), P47871, sequence (P47871 26-477): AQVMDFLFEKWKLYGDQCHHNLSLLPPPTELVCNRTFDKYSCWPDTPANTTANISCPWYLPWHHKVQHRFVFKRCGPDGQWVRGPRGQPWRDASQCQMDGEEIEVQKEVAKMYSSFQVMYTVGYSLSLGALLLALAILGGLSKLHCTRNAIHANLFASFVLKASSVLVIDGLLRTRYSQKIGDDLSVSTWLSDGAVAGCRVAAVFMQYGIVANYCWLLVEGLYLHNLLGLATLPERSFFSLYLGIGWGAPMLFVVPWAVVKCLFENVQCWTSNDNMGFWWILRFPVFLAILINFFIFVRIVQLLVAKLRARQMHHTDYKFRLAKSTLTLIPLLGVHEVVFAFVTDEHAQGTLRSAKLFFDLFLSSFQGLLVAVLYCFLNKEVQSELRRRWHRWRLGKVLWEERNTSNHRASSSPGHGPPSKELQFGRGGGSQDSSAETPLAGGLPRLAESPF

Binder | Ki [1] | EC50 (nM), cAMP production in INS1 832-3 cells [2] | Emax (%), cAMP production in INS1 832-3 cells [2] | EC50, cAMP production [3] | Emax, cAMP production [3] | EC50 (nM), cAMP production in primary human hepatocytes [4] | EC50, cAMP production [4] | Ki [5] | Emax, cAMP production [4]
H-H[Aib]QGTFTSDYSKYLDEKKAK([AEEA-AEEA-γGlu-C18 diacid])EFVEWLLEGGPSSG-NH2 (SMILES CC(C)C[C@H](NC(=O)[C@H](CC(C)C)NC(=O)[C@H](Cc1c[nH]c2ccccc12)NC(=O)[C@H](CCC(=O)O)NC(=O)[C@@H](NC(=O)[C@H](Cc1ccccc1)NC(=O)[C@H](CCC(=O)O)NC(=O)[C@H](CCCCNC(=O)COCCOCCNC(=O)COCCOCCNC(=O)CC[C@H](NC(=O)CCCCCCCCCCCCCCCCC(=O)O)C(=O)O)NC(=O)[C@H](C)NC(=O)[C@H](CCCCN)NC(=O)[C@H](CCCCN)NC(=O)[C@H](CCC(=O)O)NC(=O)[C@H](CC(=O)O)NC(=O)[C@H](CC(C)C)NC(=O)[C@H](Cc1ccc(O)cc1)NC(=O)[C@H](CCCCN)NC(=O)[C@H](CO)NC(=O)[C@H](Cc1ccc(O)cc1)NC(=O)[C@H](CC(=O)O)NC(=O)[C@H](CO)NC(=O)[C@@H](NC(=O)[C@H](Cc1ccccc1)NC(=O)[C@@H](NC(=O)CNC(=O)[C@H](CCC(N)=O)NC(=O)C(C)(C)NC(=O)[C@@H](N)Cc1c[nH]cn1)[C@@H](C)O)[C@@H](C)O)C(C)C)C(=O)N[C@@H](CCC(=O)O)C(=O)NCC(=O)NCC(=O)N1CCC[C@H]1C(=O)N[C@@H](CO)C(=O)N[C@@H](CO)C(=O)NCC(N)=O) [Compound 1] | 14.6 nM | 26.1 nM | 112% | 23.9 nM | 104% | 99.9 nM | 7.21 nM | 23 nM | 
H-H[Aib]QGTFTSDYSKYLDEKKAK([AEEA-AEEA-γGlu-γGlu-C18 diacid])EFVEWLLSGGPSSG-NH2 (SMILES CC(C)C[C@H](NC(=O)[C@H](CC(C)C)NC(=O)[C@H](Cc1c[nH]c2ccccc12)NC(=O)[C@H](CCC(=O)O)NC(=O)[C@@H](NC(=O)[C@H](Cc1ccccc1)NC(=O)[C@H](CCC(=O)O)NC(=O)[C@H](CCCCNC(=O)COCCOCCNC(=O)COCCOCCNC(=O)CC[C@H](NC(=O)CC[C@H](NC(=O)CCCCCCCCCCCCCCCCC(=O)O)C(=O)O)C(=O)O)NC(=O)[C@H](C)NC(=O)[C@H](CCCCN)NC(=O)[C@H](CCCCN)NC(=O)[C@H](CCC(=O)O)NC(=O)[C@H](CC(=O)O)NC(=O)[C@H](CC(C)C)NC(=O)[C@H](Cc1ccc(O)cc1)NC(=O)[C@H](CCCCN)NC(=O)[C@H](CO)NC(=O)[C@H](Cc1ccc(O)cc1)NC(=O)[C@H](CC(=O)O)NC(=O)[C@H](CO)NC(=O)[C@@H](NC(=O)[C@H](Cc1ccccc1)NC(=O)[C@@H](NC(=O)CNC(=O)[C@H](CCC(N)=O)NC(=O)C(C)(C)NC(=O)[C@@H](N)Cc1c[nH]cn1)[C@@H](C)O)[C@@H](C)O)C(C)C)C(=O)N[C@@H](CO)C(=O)NCC(=O)NCC(=O)N1CCC[C@H]1C(=O)N[C@@H](CO)C(=O)N[C@@H](CO)C(=O)NCC(N)=O) [Compound 3] | 37.3 nM |  |  | 34.3 nM | 105% |  | 15.3 nM | 8.68 nM | 104%
H-H[Aib]QGTFTSDYSKYLDEKKAK([AEEA-AEEA-γGlu-γGlu-C20 diacid])EFVEWLLSGGPSSG-NH2 (SMILES CC(C)C[C@H](NC(=O)[C@H](CC(C)C)NC(=O)[C@H](Cc1c[nH]c2ccccc12)NC(=O)[C@H](CCC(=O)O)NC(=O)[C@@H](NC(=O)[C@H](Cc1ccccc1)NC(=O)[C@H](CCC(=O)O)NC(=O)[C@H](CCCCNC(=O)COCCOCCNC(=O)COCCOCCNC(=O)CC[C@H](NC(=O)CC[C@H](NC(=O)CCCCCCCCCCCCCCCCCCC(=O)O)C(=O)O)C(=O)O)NC(=O)[C@H](C)NC(=O)[C@H](CCCCN)NC(=O)[C@H](CCCCN)NC(=O)[C@H](CCC(=O)O)NC(=O)[C@H](CC(=O)O)NC(=O)[C@H](CC(C)C)NC(=O)[C@H](Cc1ccc(O)cc1)NC(=O)[C@H](CCCCN)NC(=O)[C@H](CO)NC(=O)[C@H](Cc1ccc(O)cc1)NC(=O)[C@H](CC(=O)O)NC(=O)[C@H](CO)NC(=O)[C@@H](NC(=O)[C@H](Cc1ccccc1)NC(=O)[C@@H](NC(=O)CNC(=O)[C@H](CCC(N)=O)NC(=O)C(C)(C)NC(=O)[C@@H](N)Cc1c[nH]cn1)[C@@H](C)O)[C@@H](C)O)C(C)C)C(=O)N[C@@H](CO)C(=O)NCC(=O)NCC(=O)N1CCC[C@H]1C(=O)N[C@@H](CO)C(=O)N[C@@H](CO)C(=O)NCC(N)=O) [Compound 4] | 27.4 nM |  |  | 106 nM | 85.2% |  | 68.8 nM | 20.2 nM | 116%
H-H[Aib]QGTFTSDYSKYLDEKKAK([AEEA-AEEA-γGlu-C20 diacid])EFVEWLLEGGPSSG-NH2 [Compound 2] | 17.7 nM | 62 nM | 104% | 83.1 nM | 107% | 159 nM | 26.5 nM | 28.6 nM | 
